Consider 3 molecules from patent US20260167738A1 (published 2026).

The target of assay [1] is full-length human CD33 (CD33^FL) (UniProt P20138 18-364). Nature of the assay: SPR (Biacore).
The target of the next assay is CD33ΔE2. As to the kind of experiment: SPR (Biacore). For orientation: Surface plasmon resonance follows binding to a sensor surface in real time, without labels.

Sequence of full-length human CD33 (CD33^FL) (P20138 18-364): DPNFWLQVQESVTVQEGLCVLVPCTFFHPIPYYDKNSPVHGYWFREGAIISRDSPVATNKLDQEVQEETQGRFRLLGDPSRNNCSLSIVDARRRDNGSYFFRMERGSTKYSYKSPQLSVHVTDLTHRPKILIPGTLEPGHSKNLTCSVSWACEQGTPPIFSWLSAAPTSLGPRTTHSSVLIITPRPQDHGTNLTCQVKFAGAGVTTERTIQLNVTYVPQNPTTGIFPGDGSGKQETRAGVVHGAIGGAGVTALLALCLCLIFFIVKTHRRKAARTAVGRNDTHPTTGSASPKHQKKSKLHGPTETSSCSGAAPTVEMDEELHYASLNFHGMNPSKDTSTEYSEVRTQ

B1: 2D3 antibody (antibody, V domains shown)
VH: EVQLLESGGGLVQPGGSLSLSCAASGFTFSIYAMSWVRQAPGKGLEWVSAISDSGGTTYYADSVKGRFTISRDNSKNMLYLEMNSLRAEDTAIYYCAKRTRYFNGMDVWGQGTTVTVSS
VL: EIVMTQSPATLSLSPGERATLSCRASQSGSSSFLSWYQQKPGQAPRLLIYGASTRATGIPARFSGSGSGTDFTLTISSLQPEDFAVYYCQQDYNLPFTFGPGTKVDIK
For B1, the Kd (as a rule, the free concentration of one partner at which half of the binding sites on the other are occupied at equilibrium, for simple one-to-one binding) in assay [1] was 4.89 nM.

B2: 1H10 (antibody, V domains shown)
VH: QVQLVQSGAEVKKPGASVKVSCKGSGYIFTSYDMHWVRQAPGQGLEWMGIIDPSGGSTSYAQKFQGRVTMTRDTSMSTVYMELSSLRSEDTAVYYCTRDYSWSYFDYWGQGTLVTVSS
VL: AIQMTQSPSSLSASVGDRVTITCRASQGIRIYLGWYQQKPGKAPKLLIYATSSLQSGVPSRFSGSGSGTDFTLTISSLQPEDFATYYCLQDYNYPWTFGQGTKVEIK
B2 had a Kd with CD33ΔE2 of 0.136 nM.

B3: 1H10 antibody (antibody, V domains shown)
VH: QVQLVQSGAEVKKPGASVKVSCKGSGYIFTSYDMHWVRQAPGQGLEWMGIIDPSGGSTSYAQKFQGRVTMTRDTSMSTVYMELSSLRSEDTAVYYCTRDYSWSYFDYWGQGTLVTVSS
VL: AIQMTQSPSSLSASVGDRVTITCRASQGIRIYLGWYQQKPGKAPKLLIYATSSLQSGVPSRFSGSGSGTDFTLTISSLQPEDFATYYCLQDYNYPWTFGQGTKVEIK
In assay [1], B3 showed a Kd of 3.71 nM.
